These results are taken from patent publication US20020111476A1 (published 2002).

The data set concerns the molecule itself. Briefly: preliminary analysis of molecular form; method not detailed.

B1: Mouse cysteine rich soluble protein 2 (C2) (ligand)
chain: DETIEIIVENKVKELLANPANYPSTVTKTLSCTSVKTMNRWASCPAGMTATGCACGFACGSWEIQSGDTCNCLCLLVDWTTARCCQLS
notes: the copy number is not fixed; also called mC2; mouse C2
On to B1, for which the binding result is recorded as “binds”.
